Source: the domain aggregation screens of Martell et al. (2025)

assay: soluble fraction after stress (log2 fold change); higher = more stays soluble; pooled small domains, quantitative proteomics; details: stress: pH 4
Procedure, shortened: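 Aggregation propensity here comes from the fold change in the soluble amount of each small protein domain after acid stress, measured in pooled custom libraries by high-throughput quantitative proteomics. The acid stress was pH 4. On the log2 scale, higher values mean more of the domain stayed soluble.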

| Sequence | soluble fraction (log2) |
| --- | --- |
| HMEKYTDDLEIAAEIARLETLMEGNGRVLIRPSGTEPLVRVMIEGNDIEQITKLAEDLAALLNKRF | -0.842 |
| HMGGGVSSSLAGNVFKVLLPAGSVVEQGQAVIVLEAMKMETEVNAPKSGSVSSVFVNEGDTVEVGDLLFAI | -0.162 |
| HMAVQEDAGLAREDLPPEVQGLLQEREAARAAKDWGKSDALRRQLQDLGYAIKDTAQGMEIKRT | 0.101 |
| HMGEQLALLERARTLLEDETLETEVQKELEMLLEDIEAARAEANATQLEDLFEELADLLFDLE | -0.193 |
| HMANYYEILGVKHDATEAEIKAAYKQAAKSAHPDAGGSNEKMQEVNAAWEVLGNAQKRAEYDARMA | 0.349 |
| HMSATPQRMSIINELDSARKNLSAYDLRDSLKDKGHSFNISTIYRVLSFWIDVGVVHKMDSSNTYL | -0.315 |
| HMAGPVLTPEEAEVLRILADHGEMTVDNISAEGKMSAAVVLRGLGVLSAYGLVAPGGPGRWRSE | 0.00808 |
| HMRAPEIEAARSDLDVGQTVQIVRHLHGNQYEVFYRGAQWQAEAVGSSGANDAQTAVITGKNGNILLIQI | -0.297 |
| HMSTVTEVHYIAFKNGRIVDIKAALTGSAVTATSIKEQPKIENYNYTTSEVRDGILYHTYAPVA | 0.195 |
| HMRTVEQFQIRKIYAISNALGISDSRADEDELHVLVSGLTGKDSIKELTYREASVVIERLEELQ | -0.62 |
| HMLPKLAEEYAIMEIRGKGENLTAKLINKGGDSFMVRNGTVLQTGHRIDEITQTYVRAEINGMKDYLYFA | -1.44 |
| HMYKSSRASKSEVNKFLKFIIQSLDKRGFLQPGHKRQSMIRNIENIFYRTNLSDQEIRILLGIFSTLNK | -0.405 |
| HMEFVEERRNRMLDYIGENKRADVPELARHFDVTEVTIRRDLLILEQDGKLIRTHGGAMINR | -0.278 |
| HMKNTFGLTEREMEVLALIVDGLSNPEIAEKLFITRATAKAHVHSILQKLYVDDRTQAAVTAMREGL | -1.14 |
| HMDLKSLEFAIVENVQRHDLNPLEEAQGYKRLIDEFSYDQDKVSKFIGKSRSYITNSLRLLNLPLEVLEF | -0.541 |
| HMREYRITAEEGHPRIDVFLAGRPEIGLSRSRIQALIDEGQVTLNGAMPKARQAVNPGDVIVVRVPDPE | -0.336 |
| HMVQVPSLVGISEIEAKTLLTQAGFFVKIVEVFDANQPVGIVLAQAPSAGESRIIGSPVTITVNKAQ | -0.6 |
| HMFELTVGTPIRVIREPYFGKLGTVTELPAQLMVVESGTEVRVLKAKIEGEGEVLVPRANVEIIATG | -0.77 |
| HMQARLPFSFAKRHGVILLAATGEGQSDVIYKSGFDIGALAEVRRFVAGEIALKEVDGPSFDRQLTLTYQN | -1.34 |
| HMVSKTEAMAVFIADKLQEGMVPANEILELYKGMQLSDRTIRNAKKQLGIVSIRKDGQWYWSL | -0.997 |
| HMNIMNINQALNVLNLKGTVSKEELAKAYKKMAIKYHPDRNPTGVEMMKVINSAYEFLKGLNLEEIKH | 0.252 |
| HMIHSEDMDDHILGHKLVDQYLNKHIEFDNIKKAWNYHTVAIKKFGRYPHRNKILKRESTIEEIDFLKQP | -0.298 |
| HMKINKQHLAFQIFGIRAKLGLSMEQFGELLGANKSSVSGWERGTVVPSSQRLKKIAELGKISLAELLTP | 0.276 |
| HMGETWYEILEISSDATTEEIRQAYFEQARQYHPDTNPGELAREWFYQVQEAYETLSDPDRRRQYDESIKG | -2.16 |
| HMHHIDYKQLRRINPVAARRAVLDYLESTGGNITKTAQVFSINRSVVYDILKKQASGDLSDRLRIP | 0.249 |

| Sequence | soluble fraction (log2) |
| --- | --- |
| HMKNLKPSTEVILKELVKRYPDQTEFRKQQIVDVGQSFGYKGKDYGPIFDADNRVKIGTYDLAGLIVPLQR | 0.0835 |
| HMTTQERVSYSAFINDVETGRVAKVVISGYTIEGTRTNNSSFVTERPYGVDSNLSEVLMQNSVSIEGKA | -0.523 |
| HMDHSSLIKKLRLERGLSQKKLAQGISQRSTLASFENNATKISYNILIQYLDRMNVTLEEYQFMLDGNNL | -1.33 |
| HMAMDYYAIGQRIRKFRKAHDWSQEELAEKVEISTTHMSHIETGSTKLSLPVLVSLANVLDVRTDDLLF | -0.272 |
| HMPPNRDDEHLQALRDYYAANRRIPSLQRVASLLGFSSRSAAVKLMGRLADEGFIERTADDDAWITGKRFF | -0.371 |
| HMEQSGDELKTWVDQAIAAYPEKVKEYQQGKKGLLALFIGEVMKRSKGTADPKKVNQLVTEALS | -0.211 |
| HMGLNPSILVKLGNANIKTIDNLADLASDELKEILEDISITSKEADEIIMRARSSWFEEDDKKEDNI | 0.175 |
| HMVELGMSQNEFIQKFGKPFNKEMAYTYDKHKRETLFYKEDLYRGSWFIVTTAFTFVDSKLVSQEIVREER | -0.349 |
| HMRTITYSITPAHAGMSVERYLKQQHGYSTRTLVKLKHYPQGLQLNGQHARTVDLLQAGDTLAVTFLD | 0.145 |
| HMGQLVVHQIKGEASRLDKFLVVNIPKYSRSVWREMINNGSVQVNGRVVKPHLLVKEGDIITWSS | 0.0267 |
| HMDDKVGKVFNYVQEKILTGEWDIGDKITPEISLSKELGVSRSVVREAIKKFVALNILSRTQGGGTYVNNL | -0.621 |
| HMKLTNIQYETLKVVVESRAKIDEEEGITIKLEDIKKYIDQAISFTGLVGDDEDYKKLFADMEYRFKIQ | -0.925 |
| HMSPTDKATVNVYALNVRTGPGTNYKVLGSVIKGTELQVLGSSGKWLKVKYGNREAYVAGWLVK | 0.118 |
| HMTMLLEYNVSRSSKWMNKTIMDAEIPDDILIVMIKRNGQVIVPKGSTEILENDILVLSGNNLNEVALG | -1.46 |
| HMQSNDTAEIEAVVKEIMAANERVVNDYRSGNTKVVSFFVGQVMKATKGKANPKVVNEVLAKLLK | 0.169 |
| HMSKIRTFRVKTVAVDQAYQVLKDYSPIKISTESNAVIIDLDESKTPAEIAGYLEKNGIKVDNIEVIAESE | -0.148 |
| HMTRTEYMAQLEKYLKKLPHKEFQEAITFFNEYFDEAGPEKETAIMEELGSPKEAASELITNILNRHI | -0.101 |
| HMEEEDELALFLREERKNYDLTLTDVHEKTGIPQKVLKEFQWGDAQLTDRQRYTLTQYVEEAREYFQENA | -0.998 |
| HMTPNATWQDDAQNLLRDLIQHQPVLVQISAAKRLRDQAEQISRITGGETVTREHVEAAGHALGMGVT | -0.0443 |
| HMSESIFTLYGDEKFEKIRYYLKERGFITLDALARFDFDELLFVPGVSELLISEAKQLFSRYDTSSLAAKE | -0.921 |
| HMGAVFEFIMEEEEPERIDKLLSSALPDLSRSYLQKLVKEGAVLVNKKEVKPNHKVNPGDVVEISVPEPE | -0.744 |
| HMDTLRARQEAAYRFLSAIAGDWRNYEEANRALFAGDAARFQDLTESWPADVRDHARHLASAAFSS | -1.15 |
| HMMKLSKRQEQIIAVVKEHQPVSGERISDILAVSRATLRSDLSFLTLSGILKASPKVGYTYES | ≥ 0.43 |
| HMTNYSFIVNENFNNKRIDQVVANHYPKISRTKVNKIIKNNLLKLNGSTFNDPSAKVKLGDQIEFENL | 0.00451 |
| HMDSLNWVEKIINTLPEQQRLIIQMRDIEQYEFAEIAKILEMNETAIRVALSRARKTIREFMIKTH | ≥ 0.43 |

| Sequence | soluble fraction (log2) |
| --- | --- |
| HMENKIIKNAAHATLKVKKDAGIEITTELIREAVILFHRIYSPNDNPNINWERIINELESHYT | -0.993 |
| HMKKTAAKVLGESEGKPVTVQSGRYGPYVQLGSIRATLPKDLEQDDVTLDRALELISAKAERAGK | 0.0406 |
| HMGSDAFDISKLNLVGKTKESAESLLKENGFSVDTKEEASDTAAKGTVISYSPTKPKNGERVTLTVSSGK | 0.243 |
| HMKPNEYVSGETFPYLGKNYRLKVLHGSENSVRLKGGYFITTISNRDSQLSTVKSLLEDWYQTHADK | -0.163 |
| HMNIEIIEVQEESTPSEISKIISTESTKIIEDLLNLGVMASLETPLKNQDIEKLLEGYGYIVDIKP | -1.84 |
| HMDLPDTLSMPNALKVLEDNGFPTSKAKLYKMTSQEQIPFMKYGNKLVFSRKALIEWAHKQLV | 0.301 |
| HMLIIDLPDFTNKKLSELQQWADANQITLKIVEKDVSSKPYDTILEQTPAKNKYEKIVKGSTMTVTVNIK | -0.272 |
| HMDFTPDQIARLDDIISRYKDKPGGLIPVLEEAQVALEYLPIGVQKRIAKGLNLPLSRVYGVVTFYSFFTM | -0.451 |
| HMLINFPNKLKRLRLANNLTQQELANILETTKQAVSSYESGKSTPSLNSLIKLSEHFNISLDSLVFD | -0.446 |
| HMNSTGVYQRPDGFWEYRFTLSINGKKLPRRKSTDLMGNKLKTKREAIKAREEAIIALRTEKTI | 0.4 |
| HMPYNNLADAPASWKKLDDTPLTLGQVNWIAKIYDALVAKGMEKGAAAGTAISRFKKSFKVADGKWVQV | 0.173 |
| HMSHGNAALTPRQRLRLARLVVDDQWSVSAAAEFFRVSYPTAAKWARRYVELGPAGMADRSS | -0.0854 |
| HMEAELNSLVKTYENMKPKAAAQVFEELDMDVLLDVVERMKEKKLAPILAQVTPTRAKEITYELTQRR | -0.0962 |
| HMLRNDEAVMLGRRLLNKHLQAFSVQIKDISHQRIHDLLDELELESLDHLLDDIGLGNRSVFLVAQKLLQ | -1.25 |
| HMSNWYGTVVKIQPRPNAQAADTAVVKLLDGSEHRFPVWADHLTTIEVGSRLKKLSGGWDPVLMDPEETF | -0.573 |
| HMWMEKEELLWNDIIRGGVERGELREDTDIQEAAALFRQVFIGLAYQMSFSDGLDVGILRKRFHHIYGLLT | -2.16 |
| HMGLVLIDSYNDIGSAKLITNKIRNLGLIFEENENKINVFAGPFEKNDINLKIDFLIRNGYTNAQLY | -1.92 |
| HMLDSPHDDLNRKIVQMLQNDGRLPYKDIAEVLSVSEGTVRNRVQRMRDAGMLNIVALIDPMAI | -0.498 |
| HMGLDMSLEREQHRALREASQWYARLADEQVDSDAERAWRHWVAADEANQRAWQYIEAVSQRFDG | -0.829 |
| HMITETIGANIKTLRDKFRMSQQDLASKMNTARPVISNWENGKTEPSSSQLLKLAKIFDTSTDKILGNV | 0.345 |
| HMNKNQGVTTTNLNFRKSASTSSLVLYTIPKNTTLDILDKLPSGWYKVKYKGLTGYVSGSYV | 0.22 |
| HMRALPFSFANRHGVLIREISDGVAHAVYRIGSSPLGLAEARRFVGMPLMLTPVAREAFDSLLQQTYEQG | -0.612 |
| HMKQAVESAEAIFEEIARIKKLSLVKSEAEEIARKTGLQKFTIASQLLKNQHAYEMDESEIASLWDKKI | -0.594 |
| HMYIDLHEIWKSLTDEEQTVVKLLETEPAHVDTLIENSQIPASRILATLTLLEVRGIVKRLPGRMFSLAD | -0.571 |
| HMKKRDANSQGTRLILFYMLQRLHTEYKLQGFVTYNQRRSFREIYDAYHALGGNGFGTAMWEEVKELDLK | -0.0682 |
